# Assay results from paper PMC8195445.
# Key:
# [1] = biological target: GST-calmodulin C-half (CaM-C, residues 75–148) (UniProt P0DP23); experiment: pull-down
# [2] = biological target: GST-calmodulin N-half (CaM-N, residues 1–74) (UniProt P0DP23); experiment: pull-down
percent of the binding of IQ3R to Ca2+-CaM-F [1] [%],percent of the binding of IQ3R to Ca2+-CaM-F [2] [%],percent of the binding to Ca2+-CaM-F [2] [%],Substance
15,27,,IQGAP1 IQ domain (amino acids 717–916) IQ3R mutant (from UniProt P46940 717-916) (domain or fragment)
,,32,IQGAP1 wild-type IQ domain (amino acids 717–916) (from UniProt P46940 717-916) (domain or fragment)
